Data from US20250313634A1 (WUXI BIOLOGICS SHANGHAI, published 2025).

Key:
Test in all cases: capture ELISA on coated 1.14.4; relative to silent alanine substitutions
[1] = target: T1, hPD-L1_ECD.His point mutant E45A (human, UniProt Q9NZQ7 19-238)
T1 construct: extracellular domain
Experimental: (§1) After interacting with the supernatant that contains quantified PD-L1 mutant or human/mouse PD-L1_ECD.His protein (Sino Biological, China), HRP conjugated anti-His antibody (1:5000; Rockland Immunochemicals, Pottstown, PA) was added as detection antibody. Absorbance was normalized according to the average of control mutants. After setting an additional cutoff to the binding fold change (<0.55), the final determined epitope residues were identified.
(§2) The observed binding reductions most probably resulted from the instability or even collapse of hPD-L1 structure after alanine substitutions. After setting an additional cutoff to the binding fold change (<0.55), the final determined epitope residues were listed in Table 3.

[2] = target: T2, hPD-L1_ECD.His point mutant D26A (human, UniProt Q9NZQ7 19-238)
T2 construct: extracellular domain
Experimental: as §1, §2

[3] = target: T3, hPD-L1_ECD.His point mutant T20A (human, UniProt Q9NZQ7 19-238)
T3 construct: extracellular domain
Experimental: as §1, §2

[4] = target: T4, hPD-L1_ECD.His point mutant T180A (human, UniProt Q9NZQ7 19-238)
T4 construct: extracellular domain
Experimental: as §1, §2

[5] = target: T5, hPD-L1_ECD.His point mutant R86A (human, UniProt Q9NZQ7 19-238)
T5 construct: extracellular domain
Experimental: as §1, §2

[6] = target: T6, hPD-L1_ECD.His point mutant A98G (human, UniProt Q9NZQ7 19-238)
T6 construct: extracellular domain
Experimental: as §1, §2

[7] = target: T7, hPD-L1_ECD.His point mutant A51G (human, UniProt Q9NZQ7 19-238)
T7 construct: extracellular domain
Experimental: as §1, §2

[8] = target: T8, hPD-L1_ECD.His point mutant Q47A (human, UniProt Q9NZQ7 19-238)
T8 construct: extracellular domain
Experimental: as §1, §2

[9] = target: T9, hPD-L1_ECD.His point mutant K124A (human, UniProt Q9NZQ7 19-238)
T9 construct: extracellular domain
Experimental: as §1, §2

[10] = target: T10, hPD-L1_ECD.His point mutant Y160A (human, UniProt Q9NZQ7 19-238)
T10 construct: extracellular domain
Experimental: as §1, §2

[11] = target: T11, hPD-L1_ECD.His point mutant D49A (human, UniProt Q9NZQ7 19-238)
T11 construct: extracellular domain
Experimental: as §1, §2

[12] = target: T12, hPD-L1_ECD.His point mutant G110A (human, UniProt Q9NZQ7 19-238)
T12 construct: extracellular domain
Experimental: as §1, §2

[13] = target: T13, hPD-L1_ECD.His point mutant P133A (human, UniProt Q9NZQ7 19-238)
T13 construct: extracellular domain
Experimental: as §1, §2

[14] = target: T14, hPD-L1_ECD.His point mutant Y81A (human, UniProt Q9NZQ7 19-238)
T14 construct: extracellular domain
Experimental: as §1, §2

[15] = target: T15, hPD-L1_ECD.His point mutant Y118A (human, UniProt Q9NZQ7 19-238)
T15 construct: extracellular domain
Experimental: as §1, §2

[16] = target: T16, hPD-L1_ECD.His point mutant T127A (human, UniProt Q9NZQ7 19-238)
T16 construct: extracellular domain
Experimental: as §1, §2

[17] = target: T17, hPD-L1_ECD.His point mutant E72A (human, UniProt Q9NZQ7 19-238)
T17 construct: extracellular domain
Experimental: as §1, §2

[18] = target: T18, hPD-L1_ECD.His point mutant V21A (human, UniProt Q9NZQ7 19-238)
T18 construct: extracellular domain
Experimental: as §1, §2

[19] = target: T19, hPD-L1_ECD.His point mutant G33A (human, UniProt Q9NZQ7 19-238)
T19 construct: extracellular domain
Experimental: as §1, §2

[20] = target: T20, hPD-L1_ECD.His point mutant K105A (human, UniProt Q9NZQ7 19-238)
T20 construct: extracellular domain
Experimental: as §1, §2

[21] = target: T21, hPD-L1_ECD.His point mutant E217A (human, UniProt Q9NZQ7 19-238)
T21 construct: extracellular domain
Experimental: as §1, §2

[22] = target: T22, hPD-L1_ECD.His point mutant K25A (human, UniProt Q9NZQ7 19-238)
T22 construct: extracellular domain
Experimental: as §1, §2

[23] = target: T23, hPD-L1_ECD.His point mutant T203A (human, UniProt Q9NZQ7 19-238)
T23 construct: extracellular domain
Experimental: as §1, §2

[24] = target: T24, hPD-L1_ECD.His point mutant T22A (human, UniProt Q9NZQ7 19-238)
T24 construct: extracellular domain
Experimental: as §1, §2

[25] = target: T25, hPD-L1_ECD.His point mutant I206A (human, UniProt Q9NZQ7 19-238)
T25 construct: extracellular domain
Experimental: as §1, §2

[26] = target: T26, hPD-L1_ECD.His point mutant T102A (human, UniProt Q9NZQ7 19-238)
T26 construct: extracellular domain
Experimental: as §1, §2

T13 sequence (Q9NZQ7 19-238 P133A): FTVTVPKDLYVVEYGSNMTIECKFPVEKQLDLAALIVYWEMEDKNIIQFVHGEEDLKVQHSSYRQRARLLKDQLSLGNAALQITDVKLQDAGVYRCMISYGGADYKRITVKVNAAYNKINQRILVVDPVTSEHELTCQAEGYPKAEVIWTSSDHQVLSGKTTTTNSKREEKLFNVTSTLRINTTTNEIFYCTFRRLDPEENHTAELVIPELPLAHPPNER
T21 sequence (Q9NZQ7 19-238 E217A): as the sequence (Q9NZQ7 19-238 P133A) above, with A115P, E199A counted along it
T6 sequence (Q9NZQ7 19-238 A98G): as the sequence (Q9NZQ7 19-238 P133A) above, with A80G, A115P counted along it
T19 sequence (Q9NZQ7 19-238 G33A): as the sequence (Q9NZQ7 19-238 P133A) above, with G15A, A115P counted along it
T10 sequence (Q9NZQ7 19-238 Y160A): as the sequence (Q9NZQ7 19-238 P133A) above, with A115P, Y142A counted along it
T14 sequence (Q9NZQ7 19-238 Y81A): as the sequence (Q9NZQ7 19-238 P133A) above, with Y63A, A115P counted along it
T26 sequence (Q9NZQ7 19-238 T102A): as the sequence (Q9NZQ7 19-238 P133A) above, with T84A, A115P counted along it
T20 sequence (Q9NZQ7 19-238 K105A): as the sequence (Q9NZQ7 19-238 P133A) above, with K87A, A115P counted along it
T15 sequence (Q9NZQ7 19-238 Y118A): as the sequence (Q9NZQ7 19-238 P133A) above, with Y100A, A115P counted along it
T17 sequence (Q9NZQ7 19-238 E72A): as the sequence (Q9NZQ7 19-238 P133A) above, with E54A, A115P counted along it
T7 sequence (Q9NZQ7 19-238 A51G): as the sequence (Q9NZQ7 19-238 P133A) above, with A33G, A115P counted along it
T24 sequence (Q9NZQ7 19-238 T22A): as the sequence (Q9NZQ7 19-238 P133A) above, with T4A, A115P counted along it
T18 sequence (Q9NZQ7 19-238 V21A): as the sequence (Q9NZQ7 19-238 P133A) above, with V3A, A115P counted along it
T4 sequence (Q9NZQ7 19-238 T180A): as the sequence (Q9NZQ7 19-238 P133A) above, with A115P, T162A counted along it
T22 sequence (Q9NZQ7 19-238 K25A): as the sequence (Q9NZQ7 19-238 P133A) above, with K7A, A115P counted along it
T16 sequence (Q9NZQ7 19-238 T127A): as the sequence (Q9NZQ7 19-238 P133A) above, with T109A, A115P counted along it
T25 sequence (Q9NZQ7 19-238 I206A): as the sequence (Q9NZQ7 19-238 P133A) above, with A115P, I188A counted along it
T23 sequence (Q9NZQ7 19-238 T203A): as the sequence (Q9NZQ7 19-238 P133A) above, with A115P, T185A counted along it
T2 sequence (Q9NZQ7 19-238 D26A): as the sequence (Q9NZQ7 19-238 P133A) above, with D8A, A115P counted along it
T1 sequence (Q9NZQ7 19-238 E45A): as the sequence (Q9NZQ7 19-238 P133A) above, with E27A, A115P counted along it
T8 sequence (Q9NZQ7 19-238 Q47A): as the sequence (Q9NZQ7 19-238 P133A) above, with Q29A, A115P counted along it
T12 sequence (Q9NZQ7 19-238 G110A): as the sequence (Q9NZQ7 19-238 P133A) above, with G92A, A115P counted along it
T11 sequence (Q9NZQ7 19-238 D49A): as the sequence (Q9NZQ7 19-238 P133A) above, with D31A, A115P counted along it
T9 sequence (Q9NZQ7 19-238 K124A): as the sequence (Q9NZQ7 19-238 P133A) above, with K106A, A115P counted along it
T5 sequence (Q9NZQ7 19-238 R86A): as the sequence (Q9NZQ7 19-238 P133A) above, with R68A, A115P counted along it
T3 sequence (Q9NZQ7 19-238 T20A): as the sequence (Q9NZQ7 19-238 P133A) above, with T2A, A115P counted along it

B1: 1.14.4 (antibody, V domains shown)
VH: EVQLLESGGGLVQPGGSLRLSCAASGFTFSSYAMSWVRQAPGKGLEWVSGISGSGGFTYYADSVKGRFTISRDNSKNTLYLQMNSLRAEDTAVYYCAKPPRGYNYGPFDYWGQGTLVTVSS
VL: SYVLTQPPSVSVAPGQTARITCGGNNIGSKSVHWYQQKPGQAPVLVVYDDSDRPSGIPERFSGSNSGNTATLTISRVEAGDEADYYCQVWDSSSDHVVFGGGTKLTVL
notes: Fully human monoclonal antibody with a human constant region of IgG4 isotype
- fold change [1]: 0.942 fold
- fold change [2]: 0.963 fold
- fold change [3]: 0.974 fold
- fold change [4]: 1 fold
- fold change [5]: 1 fold
- fold change [6]: 1.01 fold
- fold change [7]: 1.03 fold
- fold change [8]: 1.05 fold
- fold change [9]: 1.06 fold
- fold change [10]: 0.505 fold
- fold change [11]: 0.603 fold
- fold change [12]: 0.632 fold
- fold change [13]: 0.664 fold
- fold change [14]: 0.692 fold
- fold change [15]: 0.701 fold
- fold change [16]: 0.735 fold
- fold change [17]: 0.748 fold
- fold change [18]: 0.803 fold
- fold change [19]: 0.807 fold
- fold change [20]: 0.816 fold
- fold change [21]: 0.823 fold
- fold change [22]: 0.857 fold
- fold change [23]: 0.87 fold
- fold change [24]: 0.875 fold
- fold change [25]: 0.876 fold
- fold change [26]: 0.887 fold
